Measured values published in paper PMC2063547 (The Journal of Cell Biology, 2006).

T1: calcium and integrin binding protein 1 (CIB1), recombinant (human, UniProt Q99828 1-191)
T1 sequence (looked up): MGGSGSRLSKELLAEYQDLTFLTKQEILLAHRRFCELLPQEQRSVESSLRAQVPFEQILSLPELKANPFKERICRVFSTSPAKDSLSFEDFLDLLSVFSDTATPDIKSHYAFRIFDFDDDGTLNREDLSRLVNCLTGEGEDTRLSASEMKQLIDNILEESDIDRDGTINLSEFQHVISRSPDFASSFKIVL


Assays:
[1] = target: full-length human αIIb cytoplasmic tail peptide (human); test: ELISA
[2] = target: T1, calcium and integrin binding protein 1 …; test: ELISA

| IC50 [1] [nM] | binding result [2] | Molecule |
| --- | --- | --- |
| 25 |  | talin head domain (THD), recombinant (domain or fragment) |
|  | binds | LVLAMWKVGFFKRNRPPLEEDDEEGQ [full-length human αIIb cytoplasmic tail peptide] |
